Results on 1 molecule are retold here after PMC8688357 (Frontiers in Microbiology, 2021).

This experiment deals with T1, recombinant biotin peptide-6 x His-tagged SARS-CoV-2 N protein (SARS-CoV-2 N-Bio-His6), biotinylated (SARS-CoV-2, UniProt P0DTC9 1-419).
T1 construct: also called recombinant SARS-CoV-2 N fusion protein
The experiment in a line: ELISA. The settings on record: both partners purified. Background: In an ELISA, binding on a coated surface is turned into a signal by an enzyme label.

B1: SARS-CoV-2 Spike CD-Fc (fusion protein containing the SARS-CoV-2 Spike C-terminal domain and the human IgG1 Fc domain) (Fc fusion)
chain: LCCMTSCCSCLKGCCSCGSCCKFDEDDSEPVLKGVKLHYT
notes: also called recombinant SARS-CoV-2 Spike CD fusion protein
B1: the binding result was “binds”.
